# Patent US20240400654A1
# Numbering of substitutions follows the chain as printed. Names and notes keep the numbering of the source. Values joined by “and” are separate entries in the source; they are usually repeats but may differ in a detail not shown here. Equal values may be shown once.
# B1: KB001 mouse Fab VL L34V (Fab, V domains shown)
# VH: EVQLKQSGPGLVAPSQSLSITCTVSGFSLSIYSVHWVRQPPGKGLEWLGMIWGGGSSDYNSALKSRLSISKDNSKSQVFLKMNSLQTDDTAMYYCARNGNFYAMDYWGQGTSVTVSS
# VL: QIVLTQSPAIMSASLGERVTMTCTASSSVSSSFVHWYQQKPGSSPQLWIYSTSNLASGVPARFSGSGSGTSYSLTISSMEAEDAATYYCHQYHHSPYIYTFGGGTKLEIK
# B2: KB001 mouse Fab VL L34M (Fab, V domains shown)
# VH: B1 VH
# VL: B1 VL with V34M
# B3: KB001 mouse Fab VL L34I (Fab, V domains shown)
# VH: B1 VH
# VL: B1 VL with V34I
# B4: KB001 mouse Fab VL T52K (Fab, V domains shown)
# VH: B1 VH
# VL: B1 VL with V34L, T52K
# B5: KB001 mouse Fab VL T52R (Fab, V domains shown)
# VH: B1 VH
# VL: B1 VL with V34L, T52R
# B6: KB001 mouse Fab VL T52L (Fab, V domains shown)
# VH: B1 VH
# VL: B1 VL with V34L, T52L
# B7: KB001 mouse Fab VL T52M (Fab, V domains shown)
# VH: B1 VH
# VL: B1 VL with V34L, T52M
# B8: KB001 mouse Fab VL S53D (Fab, V domains shown)
# VH: B1 VH
# VL: B1 VL with V34L, S53D
# B9: KB001 mouse Fab VL S53C (Fab, V domains shown)
# VH: B1 VH
# VL: B1 VL with V34L, S53C
# B10: KB001 mouse Fab VL S53A (Fab, V domains shown)
# VH: B1 VH
# VL: B1 VL with V34L, S53A
# B11: KB001 mouse Fab VL S53R (Fab, V domains shown)
# VH: B1 VH
# VL: B1 VL with V34L, S53R
# B12: KB001 mouse Fab VL S53W (Fab, V domains shown)
# VH: B1 VH
# VL: B1 VL with V34L, S53W
# B13: KB001 mouse Fab VL S53L (Fab, V domains shown)
# VH: B1 VH
# VL: B1 VL with V34L, S53L
# B14: KB001 mouse Fab VL S53Y (Fab, V domains shown)
# VH: B1 VH
# VL: B1 VL with V34L, S53Y
# B15: KB001 mouse Fab VL S53E (Fab, V domains shown)
# VH: B1 VH
# VL: B1 VL with V34L, S53E
# B16: KB001 mouse Fab VL S53V (Fab, V domains shown)
# VH: B1 VH
# VL: B1 VL with V34L, S53V
# Molecular target: HRgpA-6H (Porphyromonas gingivalis) (UniProt P28784)
# Assay: ELISA, coated HRgpA-6H
# UniProt P28784, sequence (P28784 228-860 limits assumed): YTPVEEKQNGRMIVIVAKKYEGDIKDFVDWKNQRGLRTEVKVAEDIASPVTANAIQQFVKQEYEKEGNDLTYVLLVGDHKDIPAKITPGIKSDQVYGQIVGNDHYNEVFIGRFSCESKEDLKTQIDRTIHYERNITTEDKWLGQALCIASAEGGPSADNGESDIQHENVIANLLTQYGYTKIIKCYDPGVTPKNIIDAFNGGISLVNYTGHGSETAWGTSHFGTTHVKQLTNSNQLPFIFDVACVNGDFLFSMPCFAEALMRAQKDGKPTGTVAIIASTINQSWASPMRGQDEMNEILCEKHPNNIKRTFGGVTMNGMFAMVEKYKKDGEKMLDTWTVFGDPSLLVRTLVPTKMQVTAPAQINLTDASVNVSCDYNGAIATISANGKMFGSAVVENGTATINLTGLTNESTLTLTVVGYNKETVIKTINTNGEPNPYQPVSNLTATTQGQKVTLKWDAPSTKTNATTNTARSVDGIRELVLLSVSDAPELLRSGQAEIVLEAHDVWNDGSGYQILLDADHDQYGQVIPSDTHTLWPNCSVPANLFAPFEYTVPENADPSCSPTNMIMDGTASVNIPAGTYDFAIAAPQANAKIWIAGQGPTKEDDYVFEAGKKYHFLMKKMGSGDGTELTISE
Binder,OD450 nm,Ratio OD(Variant)/OD(WT)
B1,0.641 and 0.634,0.846 and 0.836
B2,0.736 and 0.741 and 0.714,0.971 and 0.978 and 0.911
B3,0.67,0.884
B4,0.681,0.865
B5,0.724 and 0.681 and 0.685,0.919 and 0.865 and 0.87
B6,0.769,0.977
B7,0.662,0.841
B8,0.775,0.984
B9,0.697,0.885
B10,0.784,0.996
B11,0.637,0.809
B12,0.727,0.923
B13,0.639 and 0.636,0.811 and 0.808
B14,0.776 and 0.781,0.985 and 0.992
B15,0.766,0.973
B16,0.702,0.891
